Measured values as given in PMC11480844 (2024).
Numbering of substitutions follows the chain as printed.

B1: H2-Kb / Ed28 (parent complex)
chain 1: AQSVTQPDARVTVSEGASLQLRCKYSYFGTPYLFWYVQYPRQGLQLLLKYYPGDPVVQGVNGFEAEFSKSNSSFHLRKASVHWSDWAVYFCAVSPGSGGKLTLGAGTRLQVNL
chain 2: DSGVVQSPRHIIKEKGGRSVLTCIPISGHSNVVWYQQTLGKELKFLIQHYEKVERDKGFLPSRFSVQQFDDYHSEMNMSALELEDSAMYFCASSPRASDYTFGSGTRLLVI
chain 3: not shown
chain 4: IQKTPQIQVYSRHPPENGKPNILNCYVTQFHPPHIEIQMLKNGKKIPKVEMSDMSFSKDWSFYILAHTEFTPTETDTYACRVKHDSMAEPKTVYWDRDM
chain 5: SIINFEKL
B2: H2-Kb / Ed21 (parent complex)
chain 1: AQSVTQPDARVTVSEGASLQLRCKYSYFGTPYLFWYVQYPRQGLQLLLKYYPGDPVVQGVNGFEAEFSKSNSSFHLRKASVHWSDWAVYFCAVSMSGGYKVVFGSGTRLLVSP
chain 2: B1 chain 2 with A97Q, S98T
chain 3: not shown
chain 4: B1 chain 4
chain 5: SIINFEKL

Variants of: B1
Assay: % of reporter cells activated (NFAT-GFP), raw
Further: test concentration or dose not given here.

Variant	ratio to parent
chain 5 I3A	0.632
chain 5 I3S	1.14
chain 5 I3R	0.134
chain 5 I3K	0.651
chain 5 I3V	1.08
chain 5 I3L	0.98
chain 5 I3H	1.24
chain 5 I3E	0.656
chain 5 K7C	0.0363
chain 5 K7H	0.81
chain 5 K7I	0.197
chain 5 K7W	0.407
chain 5 K7Y	0.48
chain 5 K7S	0.406
chain 5 F5E	0.483
chain 5 F5L	0.844
chain 5 F5W	0.773
chain 5 F5C	1.13
chain 5 F5D	0.687
chain 5 F5G	0.564
chain 5 F5Y	0.875

Variant	ratio to parent
chain 5 F5P	0.74
chain 5 F5H	1
chain 5 F5K	0.56
chain 5 F5A	0.81
chain 5 E6I	0.0144
chain 5 E6S	0.039
chain 5 E6T	0.0253
chain 5 E6C	0.0175
chain 5 E6L	0.014
chain 5 E6W	0.00894
chain 5 E6A	0.238
chain 5 E6H	0.116
chain 5 E6P	0.0742
chain 5 E6Q	0.315
chain 5 I2N	0.898
chain 5 I2C	1.15
chain 5 I2A	1.25
chain 5 I2R	0.92
chain 5 I2L	1.14
chain 5 I2D	1.3
chain 5 L8C	0.616

Next, values leading:

ratio to parent	Variant
0.0295	chain 5 N4A
0.504	chain 5 N4K
0.00909	chain 5 N4V
0.0197	chain 5 N4C
0.0544	chain 5 N4E
0.035	chain 5 N4D
0.00481	chain 5 N4P
1.13	chain 5 S1T
0.332	chain 5 S1L
0.67	chain 5 S1V
1	chain 5 S1H
0.898	chain 5 S1G
0.825	chain 5 S1Y
0.536	chain 5 S1D
1.05	chain 5 S1A
0.685	chain 5 L8W
0.83	chain 5 L8P
0.761	chain 5 L8V
1.02	chain 5 L8I
0.602	chain 5 L8Q
0.862	chain 5 L8M
0.85	chain 5 L8H
0.493	chain 5 L8E

Variants of: B2
Assay: % of reporter cells activated (NFAT-GFP), raw

Variant	ratio to parent
chain 5 E6Q	0.918
chain 5 E6V	0.0269
chain 5 F5S	0.886
chain 5 F5N	0.947
chain 5 F5I	0.891
chain 5 I2V	1.04
chain 5 K7N	0.706

Second part, the variant after the results:

ratio to parent	Variant
0.966	chain 5 L8G
0.618	chain 5 N4L
0.927	chain 5 S1T
